Among the targets are PARD3_3, Q8TEW0; GRASP, Q7Z6J2; LDB3, O75112; MAGI2_2, Q86UL8; DLG4_2, P78352; DLG1_2, Q12959; PDLIM1, O00151; GRIP2_7, Q9C0E4; SCRIB_1, Q14160; FRMPD3, Q5JV73.
Assay in all cases: holdup assay
What all share (parameters): key: below the threshold = too weak to quantify, mostly under pKd 3.1 to 4
What all share (conditions): plain residues with an end cap or a label only (N-terminal biotin on a linker: ado-ado)

A further assay deals with T1, HTRA3, P83110.
T1 sequence (P83110 354-453, limits assumed, looked up): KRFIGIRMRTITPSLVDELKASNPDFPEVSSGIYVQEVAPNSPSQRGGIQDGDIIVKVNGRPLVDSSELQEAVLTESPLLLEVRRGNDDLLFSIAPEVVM

The next assay deals with T2, GRIP1_4, Q9Y3R0.
T2 sequence (Q9Y3R0 467-571, limits assumed, looked up): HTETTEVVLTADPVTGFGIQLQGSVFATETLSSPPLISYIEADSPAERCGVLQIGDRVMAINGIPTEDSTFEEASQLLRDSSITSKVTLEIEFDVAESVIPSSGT

A further assay concerns the target T3, PTPN13_1, Q12923.
T3 sequence (Q12923 1088-1188, limits assumed, looked up): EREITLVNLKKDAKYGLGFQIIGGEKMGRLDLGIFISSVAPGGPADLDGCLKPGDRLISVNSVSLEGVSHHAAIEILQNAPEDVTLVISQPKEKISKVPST

The next assay concerns the target T4, LIN7A, O14910.
T4 sequence (O14910 103-200, limits assumed, looked up): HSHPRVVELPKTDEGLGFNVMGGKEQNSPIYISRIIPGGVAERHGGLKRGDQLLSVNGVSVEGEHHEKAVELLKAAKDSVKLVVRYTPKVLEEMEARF

The target in the next assay is T5, LIN7B, Q9HAP6.
T5 sequence (Q9HAP6 88-185, limits assumed, looked up): T4 sequence (O14910 103-200, limits assumed, looked up) with S2A, V20I, I35V, E42D, H65Q, K77Q, D78G, K89R

Another assay deals with T6, DFNB31_2, Q9P202.
T6 sequence (Q9P202 274-371, limits assumed, looked up): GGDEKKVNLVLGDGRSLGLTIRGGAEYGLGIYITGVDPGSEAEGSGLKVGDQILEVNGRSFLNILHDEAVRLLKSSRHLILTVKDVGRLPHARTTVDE

The target in the next assay is T7, DFNB31_3, Q9P202.
T7 sequence (Q9P202 811-907, limits assumed, looked up): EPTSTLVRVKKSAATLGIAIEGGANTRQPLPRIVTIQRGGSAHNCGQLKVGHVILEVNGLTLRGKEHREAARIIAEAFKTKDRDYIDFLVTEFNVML

The next assay concerns the target T8, SNTA1, Q13424.
T8 sequence (Q13424 82-180, limits assumed, looked up): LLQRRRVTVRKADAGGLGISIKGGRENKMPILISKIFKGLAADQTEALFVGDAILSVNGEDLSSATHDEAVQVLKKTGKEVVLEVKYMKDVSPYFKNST

A further assay concerns the target T9, DVL3, Q92997.
T9 sequence (Q92997 244-331, limits assumed, looked up): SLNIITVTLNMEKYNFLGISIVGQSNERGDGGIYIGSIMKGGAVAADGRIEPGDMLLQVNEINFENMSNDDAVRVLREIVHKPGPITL

For the next assay, the target named is T10, DFNB31_1, Q9P202.
T10 sequence (Q9P202 135-233, limits assumed, looked up): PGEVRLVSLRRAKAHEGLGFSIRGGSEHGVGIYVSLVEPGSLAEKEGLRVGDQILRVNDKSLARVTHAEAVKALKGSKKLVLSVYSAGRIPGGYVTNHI

The next assay has as its target T11, PDZD7_3, Q9H5P4.
T11 sequence (Q9H5P4 857-944, limits assumed, looked up): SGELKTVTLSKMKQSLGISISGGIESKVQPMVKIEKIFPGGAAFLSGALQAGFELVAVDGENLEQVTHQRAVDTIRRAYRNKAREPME

The target in a further assay is T12, TIAM2, Q8IVF5.
T12 sequence (Q8IVF5 885-986, limits assumed, looked up): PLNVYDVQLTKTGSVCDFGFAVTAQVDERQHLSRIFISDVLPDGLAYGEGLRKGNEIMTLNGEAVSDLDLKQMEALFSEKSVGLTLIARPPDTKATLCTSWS

The target in the next assay is T13, CARD11, Q9BXL7.
T13 sequence (Q9BXL7 662-765, limits assumed, looked up): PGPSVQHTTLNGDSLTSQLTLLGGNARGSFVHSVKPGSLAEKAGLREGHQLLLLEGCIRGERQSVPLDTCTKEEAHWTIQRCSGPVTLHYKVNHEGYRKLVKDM

The target in another assay is T14, APBA1_1, Q02410.
T14 sequence (Q02410 651-752, limits assumed, looked up): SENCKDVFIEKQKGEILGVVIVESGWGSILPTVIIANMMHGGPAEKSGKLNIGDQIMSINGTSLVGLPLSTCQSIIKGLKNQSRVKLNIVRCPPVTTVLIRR

Our source for the pKd values is PMC9482650, “Quantitative fragmentomics allow affinity mapping of interactomes” (Nature Communications, 2022).

Residue numbers refer to the chain shown, from its start.

LDB3, O75112, sequence (O75112 1-94): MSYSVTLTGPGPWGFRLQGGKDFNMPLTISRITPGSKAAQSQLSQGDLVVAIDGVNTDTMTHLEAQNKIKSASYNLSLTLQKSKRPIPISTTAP
PDLIM1, O00151, sequence (O00151 1-87): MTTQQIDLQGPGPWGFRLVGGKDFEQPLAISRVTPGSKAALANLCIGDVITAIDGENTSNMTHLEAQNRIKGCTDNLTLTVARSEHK
MAGI2_2, Q86UL8, sequence (Q86UL8 410-522): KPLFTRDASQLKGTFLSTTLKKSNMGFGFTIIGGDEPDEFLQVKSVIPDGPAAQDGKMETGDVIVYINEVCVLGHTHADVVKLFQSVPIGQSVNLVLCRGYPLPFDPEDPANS
FRMPD3, Q5JV73, sequence (Q5JV73 12-100): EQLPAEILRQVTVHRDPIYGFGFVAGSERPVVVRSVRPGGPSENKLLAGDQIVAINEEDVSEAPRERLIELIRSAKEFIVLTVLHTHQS
SCRIB_1, Q14160, sequence (Q14160 718-814): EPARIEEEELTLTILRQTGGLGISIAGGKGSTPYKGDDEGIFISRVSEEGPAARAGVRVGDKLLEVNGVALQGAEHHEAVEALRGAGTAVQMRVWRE
GRIP2_7, Q9C0E4, sequence (Q9C0E4 934-1023): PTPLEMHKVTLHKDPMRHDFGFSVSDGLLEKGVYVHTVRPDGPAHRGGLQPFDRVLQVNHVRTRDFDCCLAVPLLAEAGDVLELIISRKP
PARD3_3, Q8TEW0, sequence (Q8TEW0 582-685): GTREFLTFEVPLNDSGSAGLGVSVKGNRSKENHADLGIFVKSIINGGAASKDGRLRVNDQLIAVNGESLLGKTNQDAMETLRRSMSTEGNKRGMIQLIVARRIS
DLG1_2, Q12959, sequence (Q12959 314-412): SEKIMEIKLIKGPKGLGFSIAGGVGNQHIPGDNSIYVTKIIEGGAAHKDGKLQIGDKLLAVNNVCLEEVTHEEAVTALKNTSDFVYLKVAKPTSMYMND
DLG4_2, P78352, sequence (P78352 155-259): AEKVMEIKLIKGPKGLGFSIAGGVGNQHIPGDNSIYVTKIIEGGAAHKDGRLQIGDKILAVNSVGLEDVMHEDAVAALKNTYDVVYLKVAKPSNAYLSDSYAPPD
GRASP, Q7Z6J2, sequence (Q7Z6J2 96-193): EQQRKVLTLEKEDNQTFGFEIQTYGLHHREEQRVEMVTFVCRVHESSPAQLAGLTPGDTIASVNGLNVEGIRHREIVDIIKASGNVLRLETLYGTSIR

B1: TTC24, A2A3L6 (peptide)
chain: PMESGICTIV
Consider B1, for which the pKd (as a rule, −log10 of the Kd, conventionally taken in molar units) is 4.29 with PARD3_3, Q8TEW0; 3.92 in the assay with HTRA3, P83110; “below the threshold” in the assay with GRIP1_4, Q9Y3R0; 4.65 with GRASP, Q7Z6J2; “below the threshold” with PTPN13_1, Q12923; “below the threshold” with LIN7A, O14910. Also, the pKd result in the assay with LIN7B, Q9HAP6 was “below the threshold”; with DFNB31_2, Q9P202, “below the threshold”; in the assay with DFNB31_3, Q9P202, 3.89; with LDB3, O75112 it was “below the threshold”; in the assay with MAGI2_2, Q86UL8 it was 4.11; in the assay with DLG4_2, P78352 it was 4.95. Besides, the pKd was 4.61 with SNTA1, Q13424; 5.2 in the assay with DLG1_2, Q12959; 3.65 with DVL3, Q92997; 3.65 in the assay with DFNB31_1, Q9P202; 5.23 in the assay with PDZD7_3, Q9H5P4; “below the threshold” in the assay with PDLIM1, O00151. Moreover, the pKd result with GRIP2_7, Q9C0E4 is “below the threshold”; with SCRIB_1, Q14160, 3.92; with FRMPD3, Q5JV73 it was “below the threshold”; with TIAM2, Q8IVF5 it was “below the threshold”; with CARD11, Q9BXL7, “below the threshold”; in the assay with APBA1_1, Q02410 it was “below the threshold”.

B2: ADGRE5, P48960 (peptide)
chain: RALRASESGI
Take B2: the pKd result is recorded as “below the threshold” with PARD3_3, Q8TEW0; “below the threshold” with HTRA3, P83110; “below the threshold” with GRIP1_4, Q9Y3R0; “below the threshold” in the assay with GRASP, Q7Z6J2; “below the threshold” with PTPN13_1, Q12923; “below the threshold” in the assay with LIN7A, O14910. The pKd in the assay with LIN7B, Q9HAP6 is 3.62; with DFNB31_2, Q9P202, “below the threshold”; in the assay with DFNB31_3, Q9P202, 3.72; with LDB3, O75112, “below the threshold”; with MAGI2_2, Q86UL8, “below the threshold”; in the assay with DLG4_2, P78352 it was “below the threshold”. In addition, the pKd result is “below the threshold” in the assay with SNTA1, Q13424; “below the threshold” with DLG1_2, Q12959; “below the threshold” in the assay with DVL3, Q92997; 3.65 in the assay with DFNB31_1, Q9P202; “below the threshold” with PDZD7_3, Q9H5P4; “below the threshold” with PDLIM1, O00151. For the same molecule, the pKd entry with GRIP2_7, Q9C0E4 was “below the threshold”; with SCRIB_1, Q14160 it was “below the threshold”; with FRMPD3, Q5JV73, “below the threshold”; with TIAM2, Q8IVF5, “below the threshold”; with CARD11, Q9BXL7, “below the threshold”; with APBA1_1, Q02410 it was “below the threshold”.

B3: PTH2R, P49190 (peptide)
chain: GCQGETEDVL
B3: the pKd with PARD3_3, Q8TEW0 was 4.32; in the assay with HTRA3, P83110, “below the threshold”; with GRIP1_4, Q9Y3R0, “below the threshold”; with GRASP, Q7Z6J2, 3.62; with PTPN13_1, Q12923, “below the threshold”; with LIN7A, O14910, “below the threshold”. In addition, the pKd entry with LIN7B, Q9HAP6 is “below the threshold”; with DFNB31_2, Q9P202, “below the threshold”; in the assay with DFNB31_3, Q9P202, “below the threshold”; in the assay with LDB3, O75112 it was “below the threshold”; with MAGI2_2, Q86UL8, “below the threshold”; with DLG4_2, P78352, “below the threshold”. Moreover, the pKd in the assay with SNTA1, Q13424 is 3.9; in the assay with DLG1_2, Q12959, “below the threshold”; with DVL3, Q92997, “below the threshold”; with DFNB31_1, Q9P202, “below the threshold”; with PDZD7_3, Q9H5P4, “below the threshold”; with PDLIM1, O00151 it was “below the threshold”. In addition, the pKd result in the assay with GRIP2_7, Q9C0E4 is “below the threshold”; in the assay with SCRIB_1, Q14160, “below the threshold”; in the assay with FRMPD3, Q5JV73, “below the threshold”; in the assay with TIAM2, Q8IVF5, “below the threshold”; with CARD11, Q9BXL7, “below the threshold”; with APBA1_1, Q02410, “below the threshold”.

B4: GJA1, P17302 (peptide)
chain: SRPRPDDLEI
On to B4, for which the pKd in the assay with PARD3_3, Q8TEW0 is 3.74; with HTRA3, P83110, “below the threshold”; with GRIP1_4, Q9Y3R0 it was “below the threshold”; in the assay with GRASP, Q7Z6J2, “below the threshold”; with PTPN13_1, Q12923, “below the threshold”; in the assay with LIN7A, O14910, “below the threshold”. For the same molecule, the pKd result was “below the threshold” with LIN7B, Q9HAP6; “below the threshold” with DFNB31_2, Q9P202; “below the threshold” in the assay with DFNB31_3, Q9P202; “below the threshold” with LDB3, O75112; “below the threshold” in the assay with MAGI2_2, Q86UL8; “below the threshold” with DLG4_2, P78352. Moreover, the pKd entry is “below the threshold” in the assay with SNTA1, Q13424; “below the threshold” with DLG1_2, Q12959; “below the threshold” in the assay with DVL3, Q92997; “below the threshold” with DFNB31_1, Q9P202; “below the threshold” in the assay with PDZD7_3, Q9H5P4; “below the threshold” with PDLIM1, O00151. For the same molecule, the pKd entry was “below the threshold” with GRIP2_7, Q9C0E4; “below the threshold” in the assay with SCRIB_1, Q14160; “below the threshold” with FRMPD3, Q5JV73; “below the threshold” with TIAM2, Q8IVF5; “below the threshold” with CARD11, Q9BXL7; “below the threshold” with APBA1_1, Q02410.
